Measured values reported in patent US20110224139A1.

Experiments:
[1] = biological target: T1, Ac-…-CONH2 (RAD16-II) self-assembling peptide, as nanofiber hydrogel; experiment: in vitro binding experiment: release of 100 nM Alexa-488 labeled protein from a nanofiber hydrogel in culture inserts
T1 sequence (peptide, N-terminal acetyl (Ac); C-terminal amide (CONH2)): RARADADARARADADA

[2] = biological target: T2, SDF-1-N-terminal peptide (first 8 amino acids of SDF-1, FRET peptide)
T2 chain: KPVSLSYR

[3] = biological target: T3, SDF-1(S4V)-N-terminal peptide (first 8 amino acids of SDF-1(S4V), FRET peptide)
T3 chain: KPVVLSYR

Alexa-488 labeled SSDF-1 (from UniProt P48061 22-89) (ligand)
percent released from the nanofibers over 24 hours [1]: 73%

B1: Human recombinant MMP-2 (R&D Systems), activated with 4-aminophenylmercuric acetate (protein)
chain: YNFFPRKPKWDKNQITYRIIGYTPDLDPETVDDAFARAFQVWSDVTPLRFSRIHDGEADIMINFGRWEHGDGYPFDGKDGLLAHAFAPGTGVGGDSHFDDDELWTLGEGQVVRVKYGNADGEYCKFPFLFNGKEYNSCTDTGRSDGFLWCSTTYNFEKDGKYGFCPHEALFTMGGNAEGQPCKFPFRFQGTSYDSCTTEGRTDGYRWCGTTEDYDRDKKYGFCPETAMSTVGGNSEGAPCVFPFTFLGNKYESCTSAGRSDGKMWCATTANYDDDRKWGFCPDQGYSLFLVAAHEFGHAMGLEHSQDPGALMAPIYTYTKNFRLSQDDIKGIQELYGASPDIDLGTGPTPTLGPVTPEICKQDIVFDGIAQIRGEIFFFKDRFIWRTVTPRDKPMGPLLVATFWPELPEKIDAVYEAPQEEKAVFFAGNEYWIYSASTLERGYPKPLTSLGLPPDVQRVDAAFNWSKNKKTYIFAGDKFWRYNEVKKKMDPGFPKLIADAWNAIPDNLDAVVDLQGGGHSYFFKGAYYLKLENQSLKSVKFGSIKSDWLGC
amount of peptide cleaved after 4 hours (FRET peptide cleavage) [2]: 205 ± 18 pmol
initial cleavage rate [2]: 2.0±0.1×10^-10M s^-1
cleavage seen by SDS-PAGE (Sumo-SDF-1-RAD): more Sumo-SDF-1-RAD was cleaved within 1 hour than Sumo-SDF-1(S4V)-RAD in 48 hours
amount of peptide cleaved after 4 hours (FRET peptide cleavage) [3]: no significant amount (1±3 pmol)
initial cleavage rate [3]: 0.1±0.1×10^-10M s^-1
rate of cleavage relative to SDF-1 (times lower), SDS-PAGE (Sumo-SDF-1(S4V)-RAD): the rate of SDF-1(S4V) cleavage is at least 48 times lower than SDF-1
